Key:
[1] = biological target: T1, ANDV Gn^B (Andes virus Gn base domain) (Andes virus, NP_604472.1 (Chile-9717869), UniProt Q9E006); test: ELISA; conditions: both partners purified
T1 construct: source: Drosophila S2 cells, purified

[2] = biological target: MAPV Gn^H/Gc (linked Maporal virus Gn head domain and Gc ectodomain) (Maporal virus, strain HV-97021050, UniProt Q5MYC0); test: ELISA; conditions: both partners purified
[3] = biological target: T2, ANDV Gc (Andes virus Gc ectodomain) (Andes virus, NP_604472.1 (Chile-9717869), UniProt Q9E006); test: ELISA; conditions: both partners purified
T2 construct: source: Drosophila S2 cells, purified
T2 sequence (Q9E006 652-1107): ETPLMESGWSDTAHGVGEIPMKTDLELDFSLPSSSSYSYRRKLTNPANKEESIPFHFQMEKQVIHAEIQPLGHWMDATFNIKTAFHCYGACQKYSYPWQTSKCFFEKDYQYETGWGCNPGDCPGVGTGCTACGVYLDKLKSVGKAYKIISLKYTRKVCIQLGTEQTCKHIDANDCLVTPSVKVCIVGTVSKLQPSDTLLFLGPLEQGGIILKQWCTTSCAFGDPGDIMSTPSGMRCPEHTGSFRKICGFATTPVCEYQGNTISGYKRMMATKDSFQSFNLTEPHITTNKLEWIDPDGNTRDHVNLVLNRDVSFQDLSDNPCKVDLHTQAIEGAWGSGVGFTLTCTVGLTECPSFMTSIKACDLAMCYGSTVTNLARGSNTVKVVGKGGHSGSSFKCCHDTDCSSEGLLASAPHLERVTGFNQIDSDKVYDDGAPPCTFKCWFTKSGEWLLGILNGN

[4] = biological target: T3, ANDV Gn/Gc (Andes virus glycoproteins from the full-length M segment, on the cell surface) (Andes virus, GenBank AF291703.2 …, UniProt Q9E006); test: flow cytometry on cells; conditions: one partner purified
T3 construct: source: Expi293F cells, transfected, on the cell surface
T3 sequence (Q9E006 whole entry, looked up): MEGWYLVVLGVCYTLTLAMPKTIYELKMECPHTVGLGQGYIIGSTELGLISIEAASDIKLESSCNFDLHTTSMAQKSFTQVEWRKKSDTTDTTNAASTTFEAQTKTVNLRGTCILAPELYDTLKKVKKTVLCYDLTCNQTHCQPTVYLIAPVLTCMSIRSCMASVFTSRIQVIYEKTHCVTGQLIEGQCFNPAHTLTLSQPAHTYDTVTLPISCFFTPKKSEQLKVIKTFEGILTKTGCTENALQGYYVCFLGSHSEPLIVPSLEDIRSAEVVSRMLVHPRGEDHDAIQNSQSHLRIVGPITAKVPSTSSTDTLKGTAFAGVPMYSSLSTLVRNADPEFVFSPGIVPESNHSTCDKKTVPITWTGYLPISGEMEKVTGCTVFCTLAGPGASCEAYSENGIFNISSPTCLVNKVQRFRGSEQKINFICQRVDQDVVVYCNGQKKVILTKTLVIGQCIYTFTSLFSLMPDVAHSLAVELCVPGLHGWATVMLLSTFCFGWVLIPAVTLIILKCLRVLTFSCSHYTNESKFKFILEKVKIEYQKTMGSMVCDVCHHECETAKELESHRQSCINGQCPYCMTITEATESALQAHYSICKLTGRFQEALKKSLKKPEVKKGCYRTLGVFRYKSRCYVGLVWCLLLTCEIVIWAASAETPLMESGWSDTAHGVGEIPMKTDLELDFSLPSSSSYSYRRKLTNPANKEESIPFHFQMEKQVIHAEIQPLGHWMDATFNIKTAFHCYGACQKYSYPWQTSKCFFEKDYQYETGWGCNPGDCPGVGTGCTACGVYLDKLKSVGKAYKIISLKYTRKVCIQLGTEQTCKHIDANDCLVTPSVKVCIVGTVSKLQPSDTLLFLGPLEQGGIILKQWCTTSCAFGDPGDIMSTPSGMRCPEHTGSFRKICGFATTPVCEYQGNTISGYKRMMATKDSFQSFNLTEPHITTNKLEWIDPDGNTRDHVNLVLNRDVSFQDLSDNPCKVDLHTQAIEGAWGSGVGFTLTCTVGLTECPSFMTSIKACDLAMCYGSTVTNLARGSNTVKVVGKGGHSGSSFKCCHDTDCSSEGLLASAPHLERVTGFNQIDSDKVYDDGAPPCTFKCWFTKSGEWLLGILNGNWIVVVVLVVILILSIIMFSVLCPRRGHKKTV

T1 sequence (Q9E006 375-484): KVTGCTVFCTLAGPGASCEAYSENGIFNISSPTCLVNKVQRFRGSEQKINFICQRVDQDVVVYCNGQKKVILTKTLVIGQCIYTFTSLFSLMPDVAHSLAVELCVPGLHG

B1: ANDV-5 (human monoclonal antibody, IgG1) (antibody, V domains shown)
VH: QVQLLQSGAEVKKPGSSVRVSCQSSGDIYNYYGISWVRQAPGQGLEWMGGIIPVYGRPNYVQKFRGRVTFTVDKSTSTAYMELSTLRADDTAVYYCARDTARSHYFGSGNDYGMDVWGQGTTVIVSS
VL: DIVMTQSPLSLPVTPGEPASISCRSSQSLLHSNGFNFVDWYLQKPGQSPQLLIYLGSTRASGVPDRFSGSGSGTDFTLEISRVEAEDVGVYYCMQALQFPRTFGQGTKLDIK
notes: also called rANDV-5; ANDV-5 IgG; source: ExpiCHO cells, transiently transfected, purified (HiTrap MabSelectSure); copies: 2 + 2
- binding result [1]: no binding
- binding result [2]: binds
- binding result [3]: no binding
- binding result [4]: binds

B2: ANDV-5 Fab (Fab, V domains shown)
VH: B1 VH
VL: B1 VL
notes: also called Fab ANDV-5; Fab form of ANDV-5; source: ExpiCHO cells, transiently transfected, purified (CaptureSelect CH1-XL)
- binding result [4]: binds

B3: ANDV-34 (human monoclonal antibody, IgG1) (antibody, V domains shown)
VH: QVHLVQSGGELRKPGSSVKVSCKASGGTFSSFAITWLRQAPGQGLEWVGAYIPVFGSAIHGQKVHGRVTLTADESTTTAYMELSSLRSEDTAVYFCARGPTQNWEYSYYTYFESWGQGTLVTVSS
VL: QIVLTQSPGTLSLSPGERATLSCRASQSVTSRYLAWYQQKPGQAPRLLIYDTSSRATGIPDRFSGSGSETDFTLTISRLAPEDFAVYYCQQYGTSPAVTFGQGTRLEIK
notes: also called rANDV-34; source: ExpiCHO cells, transiently transfected, purified (HiTrap MabSelectSure); copies: 2 + 2
- binding result [1]: no binding
- binding result [2]: no binding
- binding result [3]: no binding
- binding result [4]: binds
